The values below come from patent WO2012019024A2 (dated 2012).

Assay [1] concerns the target T1, human HER3 (human, UniProt P21860 20-1342). Kind of assay: cell-based or functional assay.
Assay [2] has as its target T1, human HER3. Kind of assay: flow cytometry competition on SKBR3 cells, antibody varied against 10 nM biotinylated HRG1β1 ligand.
Assay [3] addresses T1, human HER3. Kind of assay: Kd named as the concentration of the biotinylated reference antibody in the flow cytometry competition assay.
The target of assay [4] is macaque HER3 extracellular domain on 300-19 cells (pSRa-chiHER3) (macaque; human). In words: flow cytometry on 300-19 cells expressing maHER3 extracellular domain, apparent Kd.
macaque HER3 extracellular domain on 300-19 cells (pSRa-chiHER3) (macaque; human), sequence (P21860 644-1342, form in doubt): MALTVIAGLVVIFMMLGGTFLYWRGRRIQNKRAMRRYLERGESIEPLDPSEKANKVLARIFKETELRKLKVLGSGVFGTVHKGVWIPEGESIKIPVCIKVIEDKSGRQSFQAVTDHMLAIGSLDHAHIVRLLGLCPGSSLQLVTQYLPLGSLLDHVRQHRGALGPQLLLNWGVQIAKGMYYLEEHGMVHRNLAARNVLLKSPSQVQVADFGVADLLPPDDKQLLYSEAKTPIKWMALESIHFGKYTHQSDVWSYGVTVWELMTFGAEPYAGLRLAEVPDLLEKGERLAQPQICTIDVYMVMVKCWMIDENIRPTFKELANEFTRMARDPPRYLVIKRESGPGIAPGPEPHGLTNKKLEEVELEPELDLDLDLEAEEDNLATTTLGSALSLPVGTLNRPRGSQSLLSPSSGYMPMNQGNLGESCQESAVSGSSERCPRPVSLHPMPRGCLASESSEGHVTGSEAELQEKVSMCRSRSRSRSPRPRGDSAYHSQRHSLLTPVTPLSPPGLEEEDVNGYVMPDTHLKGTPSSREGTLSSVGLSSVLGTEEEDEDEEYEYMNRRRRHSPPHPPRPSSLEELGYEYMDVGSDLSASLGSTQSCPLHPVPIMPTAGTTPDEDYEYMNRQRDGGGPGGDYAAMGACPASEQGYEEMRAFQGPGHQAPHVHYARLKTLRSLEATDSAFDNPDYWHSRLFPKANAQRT
In assay [5] the target is T1, human HER3. Kind of assay: flow cytometry on huHER3-overexpressing 300-19 cells, apparent Kd (EC50 of the binding curve).
Assay [6] has as its target T1, human HER3. In words: flow cytometry on SKBR3 cells (endogenous HER3), apparent Kd.
Assay [7] has as its target T1, human HER3. In words: flow cytometry on SKBR3 cells, apparent Kd.
Target sequence in this assay (P21860 20-1342 limits assumed): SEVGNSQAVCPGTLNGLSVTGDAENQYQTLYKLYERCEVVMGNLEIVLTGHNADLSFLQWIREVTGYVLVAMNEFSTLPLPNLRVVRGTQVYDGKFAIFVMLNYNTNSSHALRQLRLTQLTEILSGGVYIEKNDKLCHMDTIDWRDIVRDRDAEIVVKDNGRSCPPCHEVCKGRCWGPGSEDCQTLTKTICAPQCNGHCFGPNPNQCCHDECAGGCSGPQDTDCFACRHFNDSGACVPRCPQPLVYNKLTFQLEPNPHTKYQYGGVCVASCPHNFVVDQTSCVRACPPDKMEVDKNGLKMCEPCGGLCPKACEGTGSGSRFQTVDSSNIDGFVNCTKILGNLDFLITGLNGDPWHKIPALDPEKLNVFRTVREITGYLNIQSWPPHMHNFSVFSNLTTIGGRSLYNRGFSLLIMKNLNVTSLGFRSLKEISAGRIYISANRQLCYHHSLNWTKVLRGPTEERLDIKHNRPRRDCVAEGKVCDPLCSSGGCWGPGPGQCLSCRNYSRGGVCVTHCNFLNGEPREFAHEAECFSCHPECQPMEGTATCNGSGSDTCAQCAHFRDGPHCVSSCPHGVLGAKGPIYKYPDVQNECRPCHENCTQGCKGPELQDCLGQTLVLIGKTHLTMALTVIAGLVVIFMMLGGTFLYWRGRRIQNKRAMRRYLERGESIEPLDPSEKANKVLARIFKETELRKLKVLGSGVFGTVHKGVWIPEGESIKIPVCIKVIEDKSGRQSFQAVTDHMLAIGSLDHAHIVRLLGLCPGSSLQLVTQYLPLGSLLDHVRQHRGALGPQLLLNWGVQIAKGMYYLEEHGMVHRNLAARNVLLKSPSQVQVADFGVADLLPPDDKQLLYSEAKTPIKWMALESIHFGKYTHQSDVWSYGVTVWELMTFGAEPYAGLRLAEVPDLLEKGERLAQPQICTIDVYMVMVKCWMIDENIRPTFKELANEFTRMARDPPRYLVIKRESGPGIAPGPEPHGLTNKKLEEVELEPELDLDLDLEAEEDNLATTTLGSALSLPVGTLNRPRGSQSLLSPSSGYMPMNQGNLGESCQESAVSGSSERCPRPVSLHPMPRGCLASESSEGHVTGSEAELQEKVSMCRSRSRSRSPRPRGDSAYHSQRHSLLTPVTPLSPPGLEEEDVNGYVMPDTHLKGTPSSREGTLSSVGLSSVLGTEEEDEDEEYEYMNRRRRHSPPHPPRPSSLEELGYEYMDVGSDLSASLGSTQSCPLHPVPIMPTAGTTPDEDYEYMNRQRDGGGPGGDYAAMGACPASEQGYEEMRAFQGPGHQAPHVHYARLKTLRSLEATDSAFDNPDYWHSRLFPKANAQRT
Assay [8] has as its target macaque HER3 extracellular domain on 300-19 cells (pSRa-chiHER3) (macaque; human). In words: cell-based or functional assay.
Assay [9] shares this target. In words: flow cytometry on maHER3-overexpressing 300-19 cells, apparent Kd.
In assay [10] the target is T2, human HER-3 ECD Fc protein (human; murine, UniProt P21860 20-632).
T2 construct: also called Fc fusion of human HER-3; not shown: murine IgG2A hinge, CH2, and CH3 region (pmuFc2ANL vector)
Kind of assay: ELISA on human HER-3 ECD Fc (Figure 28).

Assay [11] addresses T1, human HER3. In words: flow cytometry on huHER3-expressing 300-19 cells (Figure 15).
The target of assay [12] is T3, murine HER-3 ECD Fc fusion (murine, UniProt Q61526 20-632).
T3 construct: 'similarly constructed' to the human fusion; also called murine HER-3-Fc; not shown: murine IgG2A hinge, CH2, and CH3 region (pmuFc2ANL vector)
In words: ELISA on murine HER-3 ECD Fc (Figure 29).

Assay [13] has as its target T4, chL1-S1 chimeric human/murine HER-3 ECD Fc fusion (human; murine, UniProt P21860 20-632).
T4 construct: also called chLl-Sl; chimeric ECD comprising human L1-S1 domains and murine L2-S2 domains; not shown: murine IgG2A hinge, CH2, and CH3 region (pmuFc2ANL vector)
T4 chain: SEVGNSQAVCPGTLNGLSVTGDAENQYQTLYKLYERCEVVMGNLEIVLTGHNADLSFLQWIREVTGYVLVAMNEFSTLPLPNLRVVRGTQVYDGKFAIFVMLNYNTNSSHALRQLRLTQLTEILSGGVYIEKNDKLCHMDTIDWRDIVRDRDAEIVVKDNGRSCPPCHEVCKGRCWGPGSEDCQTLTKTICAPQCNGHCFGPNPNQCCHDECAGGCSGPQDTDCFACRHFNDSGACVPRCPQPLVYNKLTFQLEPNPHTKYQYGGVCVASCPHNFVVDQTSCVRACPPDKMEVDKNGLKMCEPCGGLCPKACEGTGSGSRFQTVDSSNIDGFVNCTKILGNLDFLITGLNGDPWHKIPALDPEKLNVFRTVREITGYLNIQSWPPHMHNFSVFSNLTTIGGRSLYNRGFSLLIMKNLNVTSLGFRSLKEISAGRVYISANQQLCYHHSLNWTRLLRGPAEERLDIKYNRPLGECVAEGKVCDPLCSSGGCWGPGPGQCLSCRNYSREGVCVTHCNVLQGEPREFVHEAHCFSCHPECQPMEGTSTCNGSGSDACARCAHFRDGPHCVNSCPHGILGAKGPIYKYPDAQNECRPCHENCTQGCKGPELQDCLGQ
In words: ELISA on chL1-S1 Fc (Figure 30).

Assay [14] addresses T1, human HER3. Kind of assay: flow cytometry competition on SKBR3 cells, naked antibody varied, competitor biotinylated muHER3-8.
The target in assay [15] is T1, human HER3. Kind of assay: flow cytometry on huHER3-expressing 300-19 cells.
In assay [16] the target is T1, human HER3. Kind of assay: flow cytometry on huHER3-expressing 300-19 cells, apparent Kd, comparison of murine and humanized antibody.
Assay [17] deals with T1, human HER3. Kind of assay: flow cytometry competition on SKBR3 cells, competitor biotinylated muHER3-8.

Substitutions are numbered along the chain they refer to. Bounds are passed on as bounds.

chKTI-SPDB-DM4 conjugate (antibody) registered an in vitro cytotoxicity EC50 (WST-8 surviving fraction), huHER3-overexpressing 300-19 cells with human HER3 [1] of 4.4 nM.

In turn, U3-Pharma/Amgen's U1-59 antibody had an EC50 with human HER3 [2] of 2.2 nM. The molecule further came in with a Kd in the assay with human HER3 [3] of 1 nM.

chKTI-SMCC-DM1 conjugate (antibody) showed an in vitro cytotoxicity EC50 (WST-8 surviving fraction), huHER3-overexpressing 300-19 cells in the assay with human HER3 [1] of 53 nM.

B1: muHER3-3 antibody (antibody, mouse IgG1, kappa, V domains shown)
VH: QVQLQQPGAELVMPGASVKMSCKASGYTFTDYWIHWVKQRPGQGLEWIGAIDTDTYTSYNQQFKGKATLTVDESSSTAYMQLSSLTSEDSAVYYCARSLLRLLYFDYWGQGTTLTVSS
VL: DIVMTQSPATLSVTPGDRVSLSCRASQSITDYLHWYQQKSHESPRLLIKFASQSISGIPSRFSGSGSGSDFTLSINSVEPEDVGVYYCQNGHSFPLTFGAGTKLELKR
notes: also called HER3-3 (murine)
In turn, B1 yielded an EC50 in the assay with human HER3 [2] of 0.32 nM. Moreover, the “HRG1β1-induced AKT phosphorylation (pAKT level, % of ligand-only control), whole cell ELISA, MCF7 cells, 10 µg/ml antibody” value with human HER3 [1] was below 50%. Moreover, the “HRG1β1-induced HER3 phosphorylation (pHER3 level, % of ligand-only control), whole cell ELISA, MCF7 cells, 10 µg/ml antibody” value with human HER3 [1] was below 20%. Also, the Kd was found to be 0.14 nM in assay [4], 0.3 nM with human HER3 [5] and 0.21 nM with human HER3 [6].

B2: huHER3-8-SMCC-DM1 conjugate (antibody, V domains shown)
VH: QVQLQESGPGLVKPSQSLSLTCTVTGSSITSDYAWNWIRQHPGNKLEWMGFISYSGSTSYNPSLKSRISITRDTSKNQFFLHLSSVTAADTATYYCSRRLGRLYYFDYWGQGTLLTVSS
VL: EIVMTQSPATLSVTPGDRVSLSCRASQSINDYLHWYQQKPGQSPRLLIKFASHSISGIPDRFSGSGSGSDFTLTISSVEPEDVGVYYCQNGHSFPWTFGGGTKLEIKR
modifications: SMCC-DM1 maytansinoid linked to the antibody, 3.5-4 DM1 molecules per antibody; attachment residues and chain not stated
notes: Immunoconjugate of huHER3-8 (v.1.00) with human constant regions; also called huHER3-8-SMCC-DMl
Turning to B2, the “in vitro cytotoxicity EC50 (WST-8 surviving fraction), huHER3-overexpressing 300-19 cells” value with human HER3 [1] was 0.17 nM. Moreover, the Kd in the assay with human HER3 [7] was determined as 0.49 nM; in assay [9] it was 0.29 nM. The molecule further had an in vitro cytotoxicity EC50 (WST-8 surviving fraction), maHER3-overexpressing 300-19 cells in assay [8] of 0.059 nM.

B3: huHER3-8-PEG4-mal-DM1 conjugate (antibody, V domains shown)
VH: B2 VH
VL: B2 VL
modifications: PEG4-mal-DM1 maytansinoid linked to the antibody, 3.5-4 maytansinoid molecules per antibody; attachment residues and chain not stated
notes: Immunoconjugate of huHER3-8 (v.1.00) with human constant regions; also called huHER3-8-PEG-mal-DM1; huHER3-8-PEG4-Mal-DMl
In the case of B3, the Kd was found to be 0.27 nM with human HER3 [7] and 0.28 nM in assay [9]. Further, in [8], the in vitro cytotoxicity EC50 (WST-8 surviving fraction), maHER3-overexpressing 300-19 cells stood at 0.045 nM.

B4: huHER3-3-SMCC-DM1 conjugate (antibody, V domains shown)
VH: B1 VH with Q5V, L11V, M13K, Q62K, K64Q
VL: B2 VL with S20T, N30T, H53Q, T74S, W96L, G100Q, I106L
modifications: SMCC-DM1 maytansinoid linked to the antibody, 3.5-4 DM1 molecules per antibody; attachment residues and chain not stated
For the molecule B4, the “in vitro cytotoxicity EC50 (WST-8 surviving fraction), huHER3-overexpressing 300-19 cells” value with human HER3 [1] is 0.19 nM.

B5: huHER3-8-SPDB-DM4 conjugate (antibody, V domains shown)
VH: B2 VH
VL: B2 VL
modifications: SPDB-DM4 maytansinoid linked to the antibody, 3.5-4 DM4 molecules per antibody; attachment residues and chain not stated
notes: Immunoconjugate of huHER3-8 (v.1.00) with human constant regions
On to B5, for which, in the assay with human HER3 [1], the “in vitro cytotoxicity EC50 (WST-8 surviving fraction), huHER3-overexpressing 300-19 cells” value turned out to be 0.18 nM. In addition, the Kd is 0.29 nM with human HER3 [7] and 0.23 nM in assay [9]. In assay [8], this molecule gave an in vitro cytotoxicity EC50 (WST-8 surviving fraction), maHER3-overexpressing 300-19 cells of 0.099 nM.

B6: huHER3-3 antibody (antibody, V domains shown)
VH: B1 VH with Q5V, L11V, M13K, Q62K, K64Q
VL: B2 VL with S20T, N30T, H53Q, T74S, W96L, G100Q, I106L
notes: Recombinant humanized antibody with human constant regions (pAbGlNeo / pAbKZeo plasmids), expressed in HEK 293T; also called humanized (resurfaced) HER3-3
Consider B6, for which the binding result (in assay [10]; in the assay with human HER3 [11]; in assay [12]; in assay [13]) was “binds” throughout.

B7: muHER3-8 antibody (antibody, mouse IgG1, V domains shown)
VH: B2 VH with Q1D, K13T, H41F, A88S, A89E, R99K, L114T
VL: B1 VL with T30N, Q53H, S74T, L96W, A100G, L106I
notes: also called HER3-8 (murine)
On to B7, for which the concentration giving a half-maximal response (EC50) with human HER3 [2] was determined as 0.29 nM; with human HER3 [14], 0.76 nM. In addition, the “HRG1β1-induced AKT phosphorylation (pAKT level, % of ligand-only control), whole cell ELISA, MCF7 cells, 10 µg/ml antibody” value with human HER3 [1] is below 50%. Further, the “HRG1β1-induced HER3 phosphorylation (pHER3 level, % of ligand-only control), whole cell ELISA, MCF7 cells, 10 µg/ml antibody” value with human HER3 [1] was below 20%. The “HRG1β1-induced MCF7 cell proliferation (WST-8, % of ligand-only control), 10 µg/ml antibody” value with human HER3 [1] came out at 40%. Further, the Kd came to 0.2 nM in the assay with human HER3 [3], 0.24 nM in assay [4], 0.23 nM with human HER3 [5] and 0.31 nM with human HER3 [6].

B8: huHER3-8v.1.00 antibody (antibody, V domains shown)
VH: B2 VH
VL: B2 VL
notes: Recombinant humanized antibody with human constant regions; also called huHER3-8 naked antibody
B8 yielded an EC50 with human HER3 [14] of 0.24 nM. Moreover, in the assay with human HER3 [15], the “fold increase of binding affinity against muHER3-8” value was around 2 fold. Further, the Kd with human HER3 [16] turned out to be 0.12 nM; with human HER3 [7], 0.14 nM; in [9], 0.19 nM. For the same molecule, the binding result in [13] was “binds”.

B9: huHER3-8v.1.01 antibody (antibody, V domains shown)
VH: B2 VH with R99K
VL: B2 VL
notes: Recombinant humanized antibody with human constant regions; murine lysine 95 of heavy chain CDR3 retained
Regarding B9, the binding result with human HER3 [17] is given as “binds”.

B10: muHER3-10 antibody (antibody, mouse IgG1, V domains shown)
VH: EVQLQQSGPELVKPGVSMKISCKASGYSFTDYTMNWVKQSHGKNLEWIGLINPYNDITAYNQKFKGKATLSVNKSSSTAYMELLSLTSEDSAVYYCARRGPRGAWFAYWGQGTLVTVSA
VL: NIVLTQSPASLAVSLGQRATISCRASTSVYNYGNSFMHWYQQMPGQPPKLLIYLASNLESGVPARFSGSGSRTDFTLTIDPVEADDAATYYCQQNSEDPWTFGGGTKLEIKR
notes: also called HER3-10 (murine)
For the molecule B10, in the assay with human HER3 [1], the “HRG1β1-induced AKT phosphorylation (pAKT level, % of ligand-only control), whole cell ELISA, MCF7 cells, 10 µg/ml antibody” value was below 50%. Besides, in the assay with human HER3 [1], the “HRG1β1-induced HER3 phosphorylation (pHER3 level, % of ligand-only control), whole cell ELISA, MCF7 cells, 10 µg/ml antibody” value is below 20%. In addition, the Kd in assay [4] stood at 0.042 nM; with human HER3 [5] it was 0.068 nM; with human HER3 [6] it was 0.052 nM.
